Kd data for one substance are collected here from publication PMC2175090.

The target in this assay is polymerized MTs purified from the bovine brain (bovine) (UniProt Q6B856). Briefly: co-sedimentation.

In turn, “GST-M1 fusion protein encompassing ACF7's M1 domain (domain or fragment)” had a Kd of 6 µM.

Broadly, the Kd is the equilibrium constant for the complex coming apart.
